Experimental data taken from article PMC7374565.

Key:
[1] = target: LRR of ANP32A alone (not stated (human and Gallus gallus ANP32A were used)); assay: NMR titration
[2] = target: full-length avian ANP32A (Gallus gallus) (Gallus gallus); assay: NMR titration

Substance	Kd [1] [µM]	Kd [2] [µM]
the 627 domain (E627 or K627 not stated) (domain or fragment)	> 1500	–
627-NLS domains of PB2, E627 form (amino acids 538-759, avian H5N1 A/duck/Shantou/4610/2003) (domain or fragment)	–	> 3000
